{
  "source": "patent US12544447B2",
  "about": "“Nuclease-dendrimer formulations for Covid-19 and broad-spectrum antiviral therapy and prophylaxis” (priority 2020, dated 2026)",
  "key": {"[1]": {"experiment": "Aggregate net charge estimated from published data", "format": "physicochemical", "details": "calculated estimates from published data", "description": "To determine the resulting aggregate net charge of each mixture (mildly or highly) cationized RNase A may be fractionated according to net charge by cation-exchange chromatography. Based upon calculated estimates from published data, the aggregate net charge of the mildly cationized RNase obtained from the above methodology is approximately +11 to +13 and the aggregate net charge of the highly cationized RNase obtained from the above methodology is approximately +21 to +23."}, "[2]": {"tested_on": "OC43 virus", "experiment": "RT-qPCR of cell culture medium for OC43 virus", "details": "RNase 10 μg/mL, dendrimer 10 μM where present", "experimental": "To conduct the RT-qPCR testing, cell culture medium was collected at 3 and 5 days after virus infection with or without mild RNase plus dendrimer treatment for RT-qPCR test. RNA from the infection virus were used for reverse transcriptase (RT) to direct complimentary DNA (cDNA) synthesis. The resulting cDNA was used as templates for the RT-qPCR reaction with a SYBR RT-PCR Kit. Reaction conditions were: 30 minutes RT at 50° C., 15 minutes at 94° C. for inactivation of reverse transcriptase (RT), followed by 40 cycles of 95° C. for 15 seconds, 60° C. for 45 seconds. Finally, conditions of 65° C. for 5 seconds and 95° C. for 5 seconds were used.\nMelting curve analysis was performed under the condition of 95° C. for 60 seconds, 40° C. for 60 seconds, 65° C. for 1 second, followed by a slow increase from 65° C. to 95° C. at a rate of 0.07° C. per second.\nNote that the limit for this PCR reaction is between 10-100 particles, which is sufficient to detect if a well is infected or has virus present."}, "[3]": {"tested_on": "HCoV-OC43 virus", "format": "cell-based", "details": "OC43, HEK293T"}, "[4]": {"tested_on": "HEK293T cells", "experiment": "Cytotoxicity of cationized RNase using HEK293T cells", "format": "cell-based, human", "method": "In this example, initially, the cytotoxicity of cationized RNase using HEK293T cells is tested. Next, the highest dose with more than 80% surviving cells is selected for an anti-viral test of a co-treatment of RNase/DNase complexed with a highly cationic molecule dendrimer (the generation 2 poly PAMAM dendrimer described above) to enhance the efficacy of ribonucleases as anti-virus (HCoV-NL63/OC43) agents.\nIn this set of exemplar experiments, the same methodology, including the cellular compositions, viral samples, and RNase/DNase formulations from Example 1 are utilized in the various experimental combinations shown in FIG. 21."}, "[5]": {"details": "cited from earlier work"}, "[6]": {"tested_on": "HIV", "details": "published research; cited from earlier work"}},
  "note": "Like-named read-outs stand apart in the source and are kept apart here.",
  "data": [
    {"molecule": "mildly cationized RNase: bovine pancreatic RNase A carboxyl groups amidated with ethylenediamine using 10 mg EDC; mixture of diversely modified proteins (protein, UniProt P61823 27-150, looked up, carboxyls amidated with ethylenediamine, mildly cationized, bovine pancreatic RNase A carboxyl groups amidated with ethylenediamine using 10 mg EDC; mixture of diversely modified proteins) Ribonuclease pancreatic: KETAAAKFERQHMDSSTSAASSSNYCNQMMKSRNLTKDRCKPVNTFVHESLADVQAVCSQKNVACKNGQTNCYQSYSTMSITDCRETGSSKYPNCAYKTTQANKHIIVACEGNPYVPVHFDASV", "values": [
      {"measurement": "aggregate net charge", "setting": "[1]", "value": "+11 to +13"},
      {"measurement": "virus detection in medium by RT-qPCR after 3 days", "setting": "[2]; 3 days", "value": "detected"},
      {"measurement": "virus detection in medium by RT-qPCR after 5 days", "setting": "[2]; 5 days", "value": "detected"},
      {"measurement": "effective reduction compared to the control group (TCID50)", "setting": "[3]; 7.5 μg/ml", "value": 6.8, "unit": "×"},
      {"measurement": "concentration with survival of 80% of the control cells", "setting": "[4]; FIG. 22", "value": 10000, "unit": "ng/mL"}
    ]},
    {"molecule": "highly cationized RNase: bovine pancreatic RNase A carboxyl groups amidated with ethylenediamine using EDC 80+80+40 mg; mixture of diversely modified proteins (protein, UniProt P61823 27-150, looked up, carboxyls amidated with ethylenediamine, highly cationized, bovine pancreatic RNase A carboxyl groups amidated with ethylenediamine using EDC 80+80+40 mg; mixture of diversely modified proteins) Ribonuclease pancreatic: KETAAAKFERQHMDSSTSAASSSNYCNQMMKSRNLTKDRCKPVNTFVHESLADVQAVCSQKNVACKNGQTNCYQSYSTMSITDCRETGSSKYPNCAYKTTQANKHIIVACEGNPYVPVHFDASV", "values": [
      {"measurement": "aggregate net charge", "setting": "[1]", "value": "+21 to +23"},
      {"measurement": "effective reduction compared to the control group (TCID50)", "setting": "[3]; highly cationized formulation", "value": "negligible"},
      {"measurement": "concentration with 80% survival of control cells, interpolated", "setting": "[4]; interpolation of experimental results", "value": "200 to 500", "unit": "ng/mL"}
    ]},
    {"molecule": "ranpiRNase: ribonuclease enzyme found in the oocytes of the northern leopard frog (rana pipiens) (protein, UniProt P22069 1-104, looked up) Protein P-30: QDWLTFQKKHITNTRDVDCDNIMSTNLFHCKDKNTFIYSRPEPVKAICKGIIASKNVLTTSEFYLSDCNVTSRPCKYKLKKSTNKFCVTCENQAPVHFVGVGSC", "values": [
      {"measurement": "maximum tolerated dose (MTD)", "setting": "[5]; intravenously weekly, patients with malignant mesothelioma", "value": 960, "unit": "mg/m2"},
      {"measurement": "maximum tolerated dose (MTD)", "setting": "[5]; of skin area, phase one clinical study", "value": 960, "unit": "μg/m^2"},
      {"measurement": "antiviral effect on HIV", "setting": "[6]", "value": "shown antiviral activity against HIV"}
    ]}
  ]
}
